Assay results as given in article PMC5496025, “Abstracts from the 10th C1-inhibitor deficiency workshop” (Allergy, Asthma, and Clinical Immunology : Official Journal …, 2017).

How the values were obtained:
[1] = molecular target: human bradykinin B2 receptor mutant #1 (found in HAE patients) (human) (UniProt P30411); assay: radioligand binding; competition binding with radiolabeled BK (3H-BK); HEK293T cells transiently transfected with human wild-type or mutant B2R
[2] = molecular target: human bradykinin B2 receptor mutant #2 (found in HAE patients) (human) (UniProt P30411); assay: as above
human bradykinin B2 receptor mutant #2 (found in HAE patients) (human), sequence (P30411 whole entry, change not shown): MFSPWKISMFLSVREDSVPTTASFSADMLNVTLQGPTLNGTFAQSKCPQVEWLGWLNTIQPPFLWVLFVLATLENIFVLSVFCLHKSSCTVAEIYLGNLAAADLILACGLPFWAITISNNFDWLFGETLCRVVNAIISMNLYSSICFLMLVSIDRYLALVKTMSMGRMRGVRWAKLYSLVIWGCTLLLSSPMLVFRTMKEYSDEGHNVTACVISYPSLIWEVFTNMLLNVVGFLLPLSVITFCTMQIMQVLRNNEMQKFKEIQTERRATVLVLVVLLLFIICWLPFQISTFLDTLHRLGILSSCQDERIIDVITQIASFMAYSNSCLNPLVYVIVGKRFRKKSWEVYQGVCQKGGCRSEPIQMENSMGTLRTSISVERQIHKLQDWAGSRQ

[3] = molecular target: T1, commercially available active FXI (UniProt P03951 19-625); assay: SDS-PAGE of enzyme/C1-INH complexes; molar equivalent quantities of active enzymes and of C1-INH; conditions: both partners purified
T1 construct: active coagulation factor XI (cleaved into disulfide-linked heavy and light chains); also called active factor XI; source: bought: commercially available
T1 sequence (P03951 19-625): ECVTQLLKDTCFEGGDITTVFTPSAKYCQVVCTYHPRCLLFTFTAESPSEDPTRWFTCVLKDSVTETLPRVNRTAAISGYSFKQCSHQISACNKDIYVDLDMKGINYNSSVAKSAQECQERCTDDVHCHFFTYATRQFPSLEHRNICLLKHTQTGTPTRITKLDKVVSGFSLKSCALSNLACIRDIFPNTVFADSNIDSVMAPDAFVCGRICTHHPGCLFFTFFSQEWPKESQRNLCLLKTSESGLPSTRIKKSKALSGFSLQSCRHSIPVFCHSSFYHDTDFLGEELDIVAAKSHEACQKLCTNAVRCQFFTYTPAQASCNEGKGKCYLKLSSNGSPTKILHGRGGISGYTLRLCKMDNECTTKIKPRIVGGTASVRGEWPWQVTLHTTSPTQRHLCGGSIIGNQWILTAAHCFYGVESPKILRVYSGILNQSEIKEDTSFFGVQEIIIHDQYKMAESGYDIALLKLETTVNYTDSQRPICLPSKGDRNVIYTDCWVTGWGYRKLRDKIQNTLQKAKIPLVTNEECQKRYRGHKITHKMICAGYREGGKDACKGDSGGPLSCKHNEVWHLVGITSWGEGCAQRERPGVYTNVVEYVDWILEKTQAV

human bradykinin B2 receptor mutant #1 (found in HAE patients) (human), sequence (P30411 whole entry, stated change not applied): as the sequence (P30411 whole entry, change not shown) above

Bradykinin (from UniProt P01042 381-389) (peptide)
affinity [1]: 0.35 nM
affinity [2]: 0.46 nM

B1: commercial plasma-derived C1-INH, further purified by ion-exchange chromatography (natural protein, UniProt P05155 23-500, looked up)
chain: NPNATSSSSQDPESLQDRGEGKVATTVISKMLFVEPILEVSSLPTTNSTTNSATKITANTTDEPTTQPTTEPTTQPTIQPTQPTTQLPTDSPTQPTTGSFCPGPVTLCSDLESHSTEAVLGDALVDFSLKLYHAFSAMKKVETNMAFSPFSIASLLTQVLLGAGENTKTNLESILSYPKDFTCVHQALKGFTTKGVTSVSQIFHSPDLAIRDTFVNASRTLYSSSPRVLSNNSDANLELINTWVAKNTNNKISRLLDSLPSDTRLVLLNAIYLSAKWKTTFDPKKTRMEPFHFKNSVIKVPMMNSKKYPVAHFIDQTLKAKVGQLQLSHNLSLVILVPQNLKHRLEDMEQALSPSVFKAIMEKLEMSKFQPTLLTLPRIKVTTSQDMLSIMEKLEFFDFSYDLNLCGLTEDPDLQVSAMQHQTVLELTETGVEAAAASAISVARTLLVFEVQQPFLFVLWDQQHKFPVFMGRVYDPRA
notes: source: bought: commercial plasma-derived C1-INH, further purified by ion-exchange chromatography
binding result [3]: binds
